In the nanobody polyreactivity screen of Harvey et al. (2022):

Assay: yeast display, Sf9 membrane polyspecificity reagent, FACS + sequencing; frameworks hold sequencing errors
Procedure, shortened: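 Sorting gates, low and high (top ~1%), were placed on anti-HA fluorescence to track expression and on streptavidin fluorescence to track reagent binding. A clone's polyreactivity label is taken from the gate it came out of. The reagent was 10% biotinylated, detergent-solubilized Sf9 membrane, applied for 1 hour at 4 °C to galactose-induced yeast display cells.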

Row | Sequence | polyreactivity (PSR sort gate)
1 | QVQLVESGGRLVQAGGSLRLICAASGFTFGAYAMGWYRQAPGKERELVATIPYSGDSTYYADSVKGRFTISRDNAKNTVYLQMNSLKPEDTSVYYCAAYSTEGCGSPDWFESFDYWGQGTLVTVSS | low polyreactivity
2 | QEQLVESGGGLDQAGGSLRLICDASGFTFLGYAMGWYRQAPGKERELVAAITSGGRTNYADSVKGRFTISRDNAKNTVYLQMNSLKPEDTAVYYCAAYRWDYYYWGQGTQVTVSS | high polyreactivity
3 | QVQLVESGAGLVQAGGTLRLSCAASGRTRQYNDMGWYRQAPGKERELVAAMTWSGGLTYYADSVKGRFTISRDNAKNTVYLKMNCLKPEDTAVYYCAVDGGTPGALRRFNYWGQGTQVTVSS | high polyreactivity
4 | QVQLVESGGGLVQAGGSLRLSCAGSGFTFGIYAMGSDRQAPGKERELVAAISSSGGSTYYADSVKGRFTISRDNAKNTVYLQMNSLKPEDTAVYYCAAVNSRRRYWYDYWGQGTQVTVSS | high polyreactivity
5 | QVQLVESGGGLVQAGGSLRLSCAASGITFFRYAMGWYRQAPGKERELVAAISSSGGSTYYADSVKGRFTISRDNAKNTVYLQMNSLKPEDTAVYYCAAAHGYRYYWGQGTQVTVSS | high polyreactivity
6 | QVQIVESGGGLLQAGGSLRLSCAASGSTFERYAMGWYRQAPWKERELVAAIDSSGGTTYYADSVKGRFTISRDNAKNTDYLQMNSLKPEDTAVYYCAADPGYYSVAYDYWGQGTQVTVSA | low polyreactivity
7 | QVQLVESGGGLVQAGGSLRLSCAASGFIIEVNAMGWYRQAPGKERELVARIDWSGGSTYYADSVKWRFTISRDNAKNTVYLQMNILKPEYTEVYYCNAEWTYADPNEYGYWGQGTLVTVSS | low polyreactivity
8 | QEQLVESGGGLVQAGGSLRLSCDASGRTLSRYTMGWYRQPPGQETELVAAISTSGSTYYADSVKGRFTISRDNAKNPVYLQMNSVKPDDTGVYYCNAVGLYLHYATGYDYWGQGRQVTVSS | high polyreactivity
9 | QVQLVESGGGLVQAGGSLRLSCAASGRIFGHNAMGWYRQAPGKERELVATISSGVRTNYADSVKGRFTISRDNAKNTVYLQMNSLKPEDTAVYYCATKTYQFGYSSYYYWGQGTQVTVSS | high polyreactivity
10 | QVQLVESGGGLVQAGGSLRLSCAASGSNFGPYAMGWYRQAPGKERELVAAISYSSVRTYYADSVKGRFTISRDNAKNTVYLQMNSLKPEVTAVYYCNAYFRYAYPSKMDYWGQGTQVTVSS | low polyreactivity
11 | QVQLVESGGGLVQAGGSLRLSCAASGNTFTRNAMGWYRQAPGKERELVAAITGRGGTYYADSVKGRFTISRDNAKNTVYLQMNSLKPEDTAVYYCNAVYRSSYQKGSMDYWGQGTQVTVSS | high polyreactivity
12 | QVQLVESGGGLVQAGGSLRLSCAASGSTFPYYARVWYRQEPGKETELVAAISSSGGSTYYADSVKGRFTISRDNAKNTVFLQMNSLKPEDPAVYYCAARRKFPYRHDYWGQGTLVTVSS | high polyreactivity
13 | QVQLVESGGGLVQAGGSLRLSCAASGLILVPNTMGWYRQAPGKERELVAAISYSGGGTYYADSVKGRFTISRDNANNTVYLQMNSLKPEDTAVYYCAAYVKRESAPYGYWGQGTLVTVSS | low polyreactivity
14 | QVQLVESGGGLVQAGGSLRLSCAASGGIFSYNAMGWYIQAPGKERELVATISYSGGSTFYADSVKGRFTISRHNAKNTVYFQMNSLKPEDTAVYYCARPSYTSGYQSYDYWGQGTQVTVSS | low polyreactivity
15 | QVQLVESGGGLVQAGGSLRLSCAASGRIFGGNAMGWYRQAPGKERELVAAISQRGGSTSYADSVKGRFTISRDNAKNTVYLQMNSLKPEDTAVYYCAATWGYLRGSTKFYYWGQGTQVTVSS | high polyreactivity
16 | QVQLVESGGGLVQAGGSLRLISAASGFIFLFYAMGWYRQAPGKERELVAAISSGVSTNYADSVKGRFTISRDNAKNTVYLQMNCLKPEDTAVYYCTTTQSTSLLYDYWGPGTQVTVSS | low polyreactivity
17 | QVQLVESGGGLVQAGGRLRLTCAASGFIFGYYTMGWYRQAPGKERELVASITRGGSTNYADSVKGRFTISRDNAKNTVYLQMNSLKPEDTAVYYCAKRYAQTYSVSRYYYWGQGTQVTVSS | high polyreactivity
18 | QVQLVETGGGLVQAGGSLRLSCAASGYTFRYYAMGWYRQAPGKERELVAAISRRGGSTSYADSVKGRFTISRDNAKNTVYLQMNSLKPEDTAVYYCAVYLGGVSPTYGYWGQGTQVTVSS | high polyreactivity
19 | QVQLVESGGGLVQAGGRLRLSCAASGSTLEINGMGWYRQAPGKEREFVADISIGGDTNYADSVKGRFTISRDNAKNTEMNSLKPEDTAVYYCNTDYFGSLVVVIFDYWGQGTQVSVSS | low polyreactivity
20 | QVQLVESGGGLVQAGGSLRLSCAASGRTFIRYAMGGYRQATGKERELVAAISWSGGSTYYADSVKGRFTISRDNAKNTVYLQMNSLKPEDTAVYYCARRVGYKFSYDYWGQGTQVTVSS | high polyreactivity
21 | QVQLVESGGGLVQAGGRLRLSCAASGSIFLFYAMGWYRKAPVKERELVARITSSGGTTYYADSVKGRFTISRDNAKNTVYLQMNSLKPEDTAVYYCAASYFIYHYDFDYWGQGTQVTVSS | high polyreactivity
22 | QVQLVDSGGGLVQAGGSLRLSCAASGFTFYSYAMGWYRPAPGKERELFAAISKSGGRSYYADSVKGRFTISRDNAKNTVYLQMKSLKPEDTGVYYCNTYGAFRSLETYDYWGQGSQVTVSS | high polyreactivity
